Measured values reported in the supplement of paper PMC12042874.
± gives the uncertainty stated by the source.

Test: amyloid nucleation score (Sup35N fusion, yeast selection) (log enrichment); library NNK1; higher = more nucleation; inactive = no reads after selection
In short: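 Sup35N fusions to peptides of 20 random codons were expressed in psi-negative yeast, induced 24 hours with 100 μM copper sulfate, and grown 7 days at 30°C on medium lacking adenine and uracil. Input and output plasmid inserts were sequenced by Illumina. The nucleation score is the DiMSum log enrichment of output over input reads, centred on the mode score of non-aggregating sequences. Sequences with under 100 input reads were excluded.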

## SHVEVDEEQVFSMSMVPTGE
  amyloid nucleation score: -0.106 ± 0.46

## NKVHSSFSLGGLPEARASDE
  amyloid nucleation score: 0.966 ± 0.66

## RLRITVTISATAGMMRRLHR
  amyloid nucleation score: 2.39 ± 0.14

## FYRSLVVNM
  amyloid nucleation score: -0.081 ± 0.96

## THFRMGKSFVICLGLASYPL
  amyloid nucleation score: 0.374 ± 0.9

## FFVLRLSLTFWSCKS
  amyloid nucleation score: 1.3 ± 0.56

## EAMLKFTVYTIVRSFNAKSR
  amyloid nucleation score: 1.11 ± 0.32

## ECGYFRLVSGERYTPVSSMR
  amyloid nucleation score: -0.139 ± 0.37

## GNLGI
  amyloid nucleation score: -0.31 ± 0.59

## RGPLDP
  amyloid nucleation score: 0.361 ± 0.45

## RCYIDYSVEFRLHMIKMKTR
  amyloid nucleation score: -0.227 ± 0.65

## NCNSGSNDTGFWQMASRTGL
  amyloid nucleation score: 0.071 ± 0.4

## SYIQLMSMMIFAHMTANRRN
  amyloid nucleation score: 1.9 ± 0.42

## IGTYGHRMELLIGSRCKSRT
  amyloid nucleation score: -0.15 ± 0.22

## CDSYSKMPPGRNILVCQFCW
  amyloid nucleation score: 2.15 ± 0.11

## VISSSVWFFATMQDCWVGRQ
  amyloid nucleation score: 0.509 ± 0.69

## VFAFA
  amyloid nucleation score: 0.126 ± 0.48

## NYAAPVSCRGLADEGRSRTD
  amyloid nucleation score: -0.4 ± 0.49

## RFVLVMYMESLKMHCSLTYT
  amyloid nucleation score: -0.381 ± 0.27

## GMSGGWPIYKLGSS
  amyloid nucleation score: 1.05 ± 0.25

## SMVSFII
  amyloid nucleation score: -0.278 ± 0.72

## VVGVYYSCIYVGAYNLGSIP
  amyloid nucleation score: 4.77 ± 0.1

## FMRYNCNCKWDYFFRDCPAG
  amyloid nucleation score: -0.357 ± 0.36

## FLRLAWGFLIMHEIRYAGWS
  amyloid nucleation score: 0.413 ± 1.2

## FKTDRGTRHFDFYYCV
  amyloid nucleation score: 0.395 ± 0.21

## LLSCSYMKIVFI
  amyloid nucleation score: 1.47 ± 0.16

## CSFLRFQIVMCCRLLDRVLC
  amyloid nucleation score: 1.72 ± 0.63

## RYLLKLFRIVGFGVVFMMSK
  amyloid nucleation score: -0.511 ± 0.34

## YWSLYSPFYAIHSVILTICQ
  amyloid nucleation score: 0.496 ± 0.18

## DDVVWNYSTA
  amyloid nucleation score: -0.487 ± 0.58

## FLTNNLYCTPYF
  amyloid nucleation score: 3.19 ± 0.079

## CTSCQYKCNCWGCVRYQTWF
  amyloid nucleation score: 2.41 ± 0.27

## NGYFYTTYASDVPRRYVPYL
  amyloid nucleation score: 0.387 ± 0.33

## WSPTVAMLDGAVRGVAPATH
  amyloid nucleation score: -0.7 ± 0.57

## NSTPLADRCSVGMLPALKAD
  amyloid nucleation score: -0.351 ± 0.63

## AFNSFIGFHCPSDVWCMKRN
  amyloid nucleation score: 5.25 ± 0.051

## YKDFVGRTEFYRVGMFRLTE
  amyloid nucleation score: 0.912 ± 0.43

## ILDHT
  amyloid nucleation score: 0.267 ± 0.33

## VYTWPTICNCQRL
  amyloid nucleation score: 0.128 ± 0.36

## CCYWMASALENRSRRIRLHV
  amyloid nucleation score: -0.612 ± 0.84

## LLSYFLRNPYMSNGTTGLHG
  amyloid nucleation score: 0.144 ± 0.79

## WRRNGNAGMSNQCWVRVKFK
  amyloid nucleation score: 0.775 ± 0.46

## LVCVGTGSGMFEHRAIMMLV
  amyloid nucleation score: -0.174 ± 0.51

## TVNVFFLQACSRSC
  amyloid nucleation score: 7.73 ± 0.06

## DSRRGYPMMSMMWW
  amyloid nucleation score: -0.354 ± 0.39

## RFFCSD
  amyloid nucleation score: 0.641 ± 0.97

## TFSEFAVIDIRYIWGTLFVS
  amyloid nucleation score: 0.762 ± 0.38

## SSERYLASQPNSSPSPSIPT
  amyloid nucleation score: -0.421 ± 1.2

## RNLTDQL
  amyloid nucleation score: 2.99 ± 0.2

## TRSGYAHARSSAAQSFTL
  amyloid nucleation score: 0.622 ± 0.33

## FNLITSD
  amyloid nucleation score: 0.074 ± 0.52

## MGHTGYFQCKVATWCEGE
  amyloid nucleation score: 0.792 ± 0.92

## YYNNC
  amyloid nucleation score: 0.501 ± 0.39

## VKSNFLHSGKIGYTSAVGFG
  amyloid nucleation score: -1.16 ± 1.9

## VIFRDPGQRRLSC
  amyloid nucleation score: -0.858 ± 2.1

## SWGQTLTMNNP
  amyloid nucleation score: -0.273 ± 0.38

## QHEDISPPKLPIVNSAIPFV
  amyloid nucleation score: 0.335 ± 0.54

## TRHWVIRQVSSTRDKYTKHA
  amyloid nucleation score: 0.217 ± 0.66

## YRCAYFL
  amyloid nucleation score: -0.25 ± 0.69

## VGAFVSRVSLLDADGLLLGS
  amyloid nucleation score: -0.09 ± 0.61

## VVFSWRIDSFGREEKGA
  amyloid nucleation score: 0.349 ± 0.81

## EYRFVN
  amyloid nucleation score: -0.227 ± 0.28

## GSKTRAKLSLGCPKFLDAKG
  amyloid nucleation score: 0.457 ± 0.73

## FLKKGERTIF
  amyloid nucleation score: -0.446 ± 1

## TVNRG
  amyloid nucleation score: 0.409 ± 1.4

## ATRSSSFRMHDKNLCLTVDM
  amyloid nucleation score: 0.855 ± 0.48

## AHLEGYYHWHYSEFWSVVVK
  amyloid nucleation score: -0.437 ± 0.31

## LVHPSWN
  amyloid nucleation score: -0.311 ± 0.77

## AISYDTYYTGELSSLWSGLS
  amyloid nucleation score: 0.666 ± 0.57

## NSGFRAASS
  amyloid nucleation score: 2.02 ± 0.55

## FYSNWRYDGYWDDLGMNIIV
  amyloid nucleation score: -0.372 ± 0.4

## DIVDARFTLTGFKFECVR
  amyloid nucleation score: 0.297 ± 0.28

## WCVFSLLKCINSLAQHFKGS
  amyloid nucleation score: inactive

## DRTTNVEYWLGAEMLSSRTV
  amyloid nucleation score: -0.469 ± 0.78

## SLWAYNPV
  amyloid nucleation score: 2.04 ± 0.38

## KTWVYSRRRRCVRPGCCGDV
  amyloid nucleation score: 3.3 ± 0.16

## SYNGCRRFNRCDRVCRNSNT
  amyloid nucleation score: 2.35 ± 0.095

## LEFVYNH
  amyloid nucleation score: 1.44 ± 0.74

## KNDGYIH
  amyloid nucleation score: -0.561 ± 1.4

## AAPRWSYEAASANAMLFVIL
  amyloid nucleation score: 2.89 ± 0.25

## MVETVYMVEALCRGPEPVVV
  amyloid nucleation score: -2.09 ± 2.4

## YIGVRCG
  amyloid nucleation score: 0.026 ± 0.51

## EMNLSLSVCALFRFIT
  amyloid nucleation score: -0.56 ± 0.43

## DTRTSNNPALFRGFTALRVR
  amyloid nucleation score: 0.412 ± 0.54

## RTGITNTKPTQWSYNQSLSS
  amyloid nucleation score: -0.291 ± 0.52

## RSNCDFLSNNYGFLFGFLSQ
  amyloid nucleation score: 0.525 ± 0.44

## SNTSMHRLLLIIVGKNMNVV
  amyloid nucleation score: 0.261 ± 1
